This experiment concerns the target IP3R-type 2 (UniProt Q9Z329). Kind of experiment: anti-IP3R2 co-IP from heart lysate. To be noted: reference: wild type heart after TAC; sites S14.

With “Bcl-xL (from UniProt Q64373) S14A knock-in heart after TAC”, the “binding against the reference” value is reported as “stronger”.

The record behind these values is paper PMC10509265.
